Molecular target: the molecule itself
Assay: cross-linking; disulfide-linked species of purified GST-TNIK KD; oxidised in vitro with 50 uM H2O2 at 30°C for 15 min or without H2O2 (air oxidation); nonreducing (-DTT) or reducing (+DTT) SDS-PAGE and Western blotting

B1: Recombinant GST-tagged TNIK kinase domain (human amino acids 1 to 367) (domain or fragment, UniProt Q9UKE5 1-367, looked up)
chain: MASDSPARSLDEIDLSALRDPAGIFELVELVGNGTYGQVYKGRHVKTGQLAAIKVMDVTGDEEEEIKQEINMLKKYSHHRNIATYYGAFIKKNPPGMDDQLWLVMEFCGAGSVTDLIKNTKGNTLKEEWIAYICREILRGLSHLHQHKVIHRDIKGQNVLLTENAEVKLVDFGVSAQLDRTVGRRNTFIGTPYWMAPEVIACDENPDATYDFKSDLWSLGITAIEMAEGAPPLCDMHPMRALFLIPRNPAPRLKSKKWSKKFQSFIESCLVKNHSQRPATEQLMKHPFIRDQPNERQVRIQLKDHIDRTKKKRGEKDETEYEYSGSEEEEEENDSGEPSSILNLPGESTLRRDFLRLQLANKERSEA
notes: Oxidised in vitro with 50 uM H2O2 (30°C, 15 min) or left without H2O2; The disulfide-linked species were seen on nonreducing SDS-PAGE; GST is kept on the protein; also called GST-TNIK KD; TNIK KD; source: bought: Thermo Fisher Scientific, recombinant purified
- binding result: binds
